Test results as given in US20140051120A1 (Genentech, published 2014).
Substitutions are numbered along the chain they refer to. Where no end group is shown, it is not given here.

T1: mouse EGFL7 (mEGFL7-CB-His) (mouse, UniProt Q9QXT5 22-275)
T1 sequence: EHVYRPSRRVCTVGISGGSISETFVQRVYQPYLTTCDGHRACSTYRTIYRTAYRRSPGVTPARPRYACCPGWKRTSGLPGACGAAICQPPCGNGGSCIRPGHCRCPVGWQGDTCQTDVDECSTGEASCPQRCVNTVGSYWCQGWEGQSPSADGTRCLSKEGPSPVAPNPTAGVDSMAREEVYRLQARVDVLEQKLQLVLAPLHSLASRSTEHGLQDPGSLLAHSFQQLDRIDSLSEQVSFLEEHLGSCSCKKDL

T2: p5 peptide of EGFL7 (human)
T2 construct: also called Peptide P5
T2 peptide: RACSTYRTIYRTA

T3: p2S (p2 peptide biotinylated through its free cysteine) (human, also: biotinylated (maleimide PEO2-biotin) on one of the two Cys, which one not given here)
T3 construct: The peptide has two cysteines; also called b-p2S
T3 peptide: RPRYACCPGWKRT

B1: 18F7.v6C IgG (antibody, V domains shown)
VH: EVQLVESGGGLVQPGGSLRLSCAASGYTFIDYYMNWVRQAPGKGLEWVGDINLDNSGTHYNQKFKGRFTISRDKSKNTAYLQMNSLRAEDTAVYYCAREGVYHDYDDYAMDYWGQGTLVTVSS
VL: DIQMTQSPSSLSASVGDRVTITCRTSQSLVHINGITYLHWYQQKPGKAPKLLIYRVSNRFSGVPSRFSGSGSGTDFTLTISSLQPEDFATYYCGQSTHVPLTFGQGTKVEIK
notes: IgG; Variant of 18F7.v6
B2: 18F7.v3 IgG (antibody, name in Kabat numbering, V domains shown)
VH: B1 VH with S56G
VL: DIQMTQSPSSLSASVGDRVTITCRTSQSLVHINGITYLHWYQQKPGKAPKLLIYRVSNRFSGVPSRFSGSGSGTDFTLTISSLQPEDFATYYCSQSTHVPLTFGQGTKVEIKR
notes: IgG; Kabat numbering; also called 18F7-KA
B3: 18F7.v9 IgG (antibody, V domains shown)
VH: B1 VH with Y32K, S56G
VL: B1 VL with G94S
notes: IgG; Kabat numbering
B4: 18F7.v7 IgG (antibody, V domains shown)
VH: B1 VH with S56G
VL: B1 VL with G94A
notes: IgG; Kabat numbering
B5: 18F7.v2 IgG (antibody, name in Kabat numbering, V domains shown)
VH: B1 VH with S56G, A79L
VL: B2 VL
notes: IgG; Kabat numbering; also called 18F7-K
B6: 18F7.v10 IgG (antibody, V domains shown)
VH: B1 VH with S56G, D104P
VL: B1 VL with G94S
notes: IgG; Kabat numbering
B7: 18F7.v5 IgG (antibody, V domains shown)
VH: B1 VH with S56G
VL: B1 VL with F60G, G94S
notes: IgG; Kabat numbering
B8: 18F7.v8 IgG (antibody, V domains shown)
VH: B1 VH with S56G
VL: B1 VL with G94V
notes: IgG; Kabat numbering
B9: 18F7.v1 IgG (18F7-graft) (antibody, V domains shown)
VH: B1 VH with S56G, K74N, A79L
VL: B2 VL
notes: Expressed as IgG
B10: 18F7.v4 IgG (antibody, name in Kabat numbering, V domains shown)
VH: B1 VH with S56G, A79V
VL: B2 VL
notes: IgG; Kabat numbering; also called 18F7-KV
B11: 18F7.v6I IgG (antibody, V domains shown)
VH: B1 VH
VL: B1 VL with N33Q
notes: IgG; Variant of 18F7.v6
B12: 18F7.v6J IgG (antibody, V domains shown)
VH: B1 VH
VL: B1 VL with G34S
notes: IgG; Variant of 18F7.v6
B13: 18F7.v6E IgG (antibody, V domains shown)
VH: B1 VH
VL: B1 VL with N33S
notes: IgG; Variant of 18F7.v6
B14: 4F11.v15 IgG (antibody, name in Kabat numbering, V domains shown)
VH: EVQLVESGGGLVQPGGSLRLSCAASGHTFTTYGMSWVRQAPGKGLEWVGWINTHSGVPTYADDFKGRFTISLDNSKNTAYLQMNSLRAEDTAVYYCARLGSSAVDYWGQGTLVTVSS
VL: DIQMTQSPSSLSASVGDRVTITCKASQSVDYDGDSYMSWYQQKPGKAPKLLIYGASNLESGVPSRFSGSGSGTDFTLTISSLQPEDFATYYCQQNNEDPYTFGQGTKVEIKR
notes: IgG; Kabat numbering
B15: 4F11.v16 IgG (antibody, name in Kabat numbering, V domains shown)
VH: B14 VH with V2I, V48M, I70F, N74T, K76A, N77S, Y95F
VL: B14 VL
notes: IgG; Kabat numbering
B16: 4F11.v14 IgG (antibody, name in Kabat numbering, V domains shown)
VH: B14 VH with V2I, V48M, I70F, N74T, K76A, N77S, Y95F
VL: B14 VL with M4L
notes: IgG; Kabat numbering
B17: 4F11.v13 IgG (antibody, name in Kabat numbering, V domains shown)
VH: B14 VH
VL: B14 VL with M4L
notes: IgG; Kabat numbering
B18: 18F7.v6D IgG (antibody, V domains shown)
VH: B1 VH with N55S, S56G
VL: B1 VL with N33S
notes: IgG; Variant of 18F7.v6
B19: 4F11.v4 IgG (antibody, V domains shown)
VH: B14 VH with L72R, A79V
VL: DIQMTQSPSSLSASVGDRVTITCKASQSVDYRGDSYMSWYQQKPGKAPKLLIYGASNLESGVPSRFSGSGSGTDFTLTISSLQPEDFATYYCQQNNEDPYTFGQGTKVEIK
notes: IgG; Kabat numbering
B20: 4F11.v9 IgG (antibody, V domains shown)
VH: B14 VH with F29R, L72R, A79V
VL: B19 VL with R32D
notes: IgG; Kabat numbering
B21: 4F11.v3 IgG (antibody, name in Kabat numbering, V domains shown)
VH: B14 VH with L72R, A79V
VL: B14 VL
notes: IgG; Kabat numbering
B22: 4F11.v12 IgG (antibody, V domains shown)
VH: B14 VH with T53I, L72R, A79V
VL: B19 VL with R32D
notes: IgG; Kabat numbering
B23: 4F11.v5 IgG (antibody, V domains shown)
VH: B14 VH with L72R, A79V
VL: B19 VL with R32D, M37V
notes: IgG; Kabat numbering
B24: 4F11.v1 IgG (antibody, V domains shown)
VH: B14 VH with L72R, A79L
VL: B14 VL
notes: Expressed as IgG in 293 cells; also called 4F11-graft; direct CDR-graft
B25: 4F11.v2 IgG (antibody, name in Kabat numbering, V domains shown)
VH: B14 VH with L72R, A79T
VL: B14 VL
notes: IgG; Kabat numbering

Molecular target: T1, mouse EGFL7 (mEGFL7-CB-His)
Experiment: SPR (Biacore), IgG over immobilized mEGFL7-CB at 37 C, n = 2
Experimental: (§1) Affinity determinations were performed by surface plasmon resonance using a BIAcore™-2000. Truncated EGFL7 or p5 peptide was immobilized (approximately 50-200 RU) in 10 mM sodium acetate pH 4.8 on a CMS sensor chip. Purified IgG variants were injected (using a 2-fold serial dilution of 0.5 to 1000 nM in PBST) at a flow rate of 30 μL/min. Each sample was analyzed with 3-minute association and 3.5-minute disassociation. After each injection the chip was regenerated using 10 mM glycine pH 1.7.
(§2) Binding response was corrected by subtracting a control flow cell from IgG variant flow cells. A 1:1 Languir model of simultaneous fitting of kₒₙ and koff was used for kinetics analysis.

| Binder | Kd | koff | kon |
| --- | --- | --- | --- |
| B1 | 2.4 nM | 8.1e-05 s⁻¹ | 36000 M⁻¹ s⁻¹ |

Molecular target: T2, p5 peptide of EGFL7
Experiment: SPR (Biacore), IgG over immobilized P5 peptide at 37 C;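 note: IgG variants injected at 0.5–1000 nM (2-fold series), 3 min association and 3.5 min dissociation, reference flow cell subtracted, kinetics fitted with a 1:1 Langmuir model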

| Binder | Kd | koff | kon |
| --- | --- | --- | --- |
| B2 | 4.22 nM | 0.000858 s⁻¹ | 203000 M⁻¹ s⁻¹ |
| B3 | 3.35 nM | 0.000763 s⁻¹ | 228000 M⁻¹ s⁻¹ |
| B4 | 2.87 nM | 0.000718 s⁻¹ | 251000 M⁻¹ s⁻¹ |
| B5 | 2.59 nM | 0.00119 s⁻¹ | 458000 M⁻¹ s⁻¹ |
| B6 | 0.982 nM | 0.000811 s⁻¹ | 825000 M⁻¹ s⁻¹ |
| B7 | 2.7 nM | 0.000892 s⁻¹ | 330000 M⁻¹ s⁻¹ |
| B8 | 2.16 nM | 0.00102 s⁻¹ | 472000 M⁻¹ s⁻¹ |
| B9 | 6.3 nM | 0.002 s⁻¹ | 317000 M⁻¹ s⁻¹ |
| B10 | 7.27 nM | 0.00132 s⁻¹ | 182000 M⁻¹ s⁻¹ |
| B11 | 16.7 nM | 0.00316 s⁻¹ | 190000 M⁻¹ s⁻¹ |
| B12 | 5.6 nM | 0.000607 s⁻¹ | 108000 M⁻¹ s⁻¹ |
| B13 | 5.1 nM | 0.00154 s⁻¹ | 303000 M⁻¹ s⁻¹ |

Molecular target: T3, p2S (p2 peptide biotinylated through …)
Experiment: SPR (BIAcore-2000), IgG injected over immobilized p2S peptide
Experimental: (§3) Affinity determinations were performed by surface plasmon resonance using a BIAcore™-2000. […] Purified IgG variants were injected (using a 2-fold serial dilution of 0.5 to 1000 nM in PBST) at a flow rate of 30 μL/min. Each sample was analyzed with 3-minute association and 3.5-minute disassociation. After each injection the chip was regenerated using 10 mM glycine pH 1.7.
as §2

| Binder | Kd | koff | kon |
| --- | --- | --- | --- |
| B14 | 30.5 nM | 0.00276 s⁻¹ | 90500 M⁻¹ s⁻¹ |
| B15 | 16.8 nM | 0.00165 s⁻¹ | 98100 M⁻¹ s⁻¹ |
| B16 | 7 nM | 0.000984 s⁻¹ | 141000 M⁻¹ s⁻¹ |
| B17 | 12.5 nM | 0.00186 s⁻¹ | 149000 M⁻¹ s⁻¹ |

Molecular target: T2, p5 peptide of EGFL7
Experiment: SPR (Biacore), IgG over immobilized P5 peptide at 37 C, n = 2

| Binder | Kd | koff | kon |
| --- | --- | --- | --- |
| B1 | 4.13 nM | 0.000502 s⁻¹ | 124000 M⁻¹ s⁻¹ |
| B18 | 9.77 nM | 0.00232 s⁻¹ | 313000 M⁻¹ s⁻¹ |

Molecular target: T1, mouse EGFL7 (mEGFL7-CB-His)
Experiment: SPR (Biacore), IgG over immobilized mEGFL7-CB at 37 C;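 note: IgG injected as twofold series from 0.5 to 1000 nM, 3 min association and 3.5 min dissociation, reference flow cell subtracted, kinetics fitted to 1:1 Langmuir model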
Experimental: as §1, §2

| Binder | Kd | koff | kon |
| --- | --- | --- | --- |
| B2 | 1.64 nM | 9.05e-05 s⁻¹ | 55000 M⁻¹ s⁻¹ |
| B3 | 1.58 nM | 9.32e-05 s⁻¹ | 59000 M⁻¹ s⁻¹ |
| B4 | 1.38 nM | 9.58e-05 s⁻¹ | 70000 M⁻¹ s⁻¹ |
| B5 | 1.81 nM | 0.000198 s⁻¹ | 110000 M⁻¹ s⁻¹ |
| B6 | 1.22 nM | 0.000195 s⁻¹ | 160000 M⁻¹ s⁻¹ |
| B18 | 7.65 nM | 0.000791 s⁻¹ | 103000 M⁻¹ s⁻¹ |
| B7 | 1.61 nM | 0.000117 s⁻¹ | 73000 M⁻¹ s⁻¹ |
| B8 | 2.04 nM | 0.000199 s⁻¹ | 98000 M⁻¹ s⁻¹ |
| B9 | 2.82 nM | 0.000274 s⁻¹ | 97000 M⁻¹ s⁻¹ |
| B10 | 4.15 nM | 0.000208 s⁻¹ | 50000 M⁻¹ s⁻¹ |
| B11 | 21.3 nM | 0.000488 s⁻¹ | 23000 M⁻¹ s⁻¹ |
| B12 | 0.8 nM | 1.64e-05 s⁻¹ | 21000 M⁻¹ s⁻¹ |
| B13 | 9.9 nM | 0.000474 s⁻¹ | 48000 M⁻¹ s⁻¹ |

Molecular target: T3, p2S (p2 peptide biotinylated through …)
Experiment: SPR (BIAcore-2000), IgG injected over immobilized p2S peptide
Remark: another data set of the same source
Experimental: as §3, §2

| Binder | Kd | koff | kon |
| --- | --- | --- | --- |
| B19 | 13.6 nM | 0.00314 s⁻¹ | 231000 M⁻¹ s⁻¹ |
| B20 | 9 nM | 0.0023 s⁻¹ | 264000 M⁻¹ s⁻¹ |
| B21 | 34.6 nM | 0.00292 s⁻¹ | 84500 M⁻¹ s⁻¹ |
| B22 | 11.1 nM | 0.00218 s⁻¹ | 196000 M⁻¹ s⁻¹ |
| B23 | 34 nM | 0.00242 s⁻¹ | 71100 M⁻¹ s⁻¹ |
| B24 | 96.8 nM | 0.00331 s⁻¹ | 34200 M⁻¹ s⁻¹ |
| B25 | 54.4 nM | 0.00291 s⁻¹ | 53500 M⁻¹ s⁻¹ |
